Measured values taken from article PMC6821171.

Target: TF-LYAR-FL (FLAG) (human) (UniProt Q9NX58)
Assay: EMSA
Conditions: EMSA: 10 mM Tris-HCl pH 7.4, 50 mM KCl, 1 mM DTT, 2.5 % (further components not shown in material), 20 µl, 30 min, room temperature

With “GGTATATCTTTCGCTCCGAGTCGGCATTTTGGGCCGCCGGGTTATTGCTGACACGCTGTCCTCTGGCGACCTGTCGTC (double strand) [H0 rDNA promoter probe (H0-BT)]” as the sequence, how does the binding read?
Its binding is “no binding”.
